In patent US20110118131A1 (published 2011):
Residue numbers refer to the chain shown, from its start. In names and notes the source's numbering stands.

B1: XPA23 heavy chain G103V (Fab, V domains shown)
VH: EVQLLESGGGLVQPGGSLRLSCAASGFTFSKYFMFWVRQAPGKGLEWVSVISPSGGMTRYADSVKGRFTISRDNSKNTLYLQMNSLRAEDTAVYYCARVGYGVNSDYWGQGTLVTVSS
VL: DIQMTQSPSSVSASVGDRLTIICRASQDINRWLAWYQQTPGNAPKLLIHSATSLQSGVPSRFSGSGSGTDFTLTINSLQPEDFATYYCQQADSFPLTFGGGTKVEIK
notes: Fab, periplasmic extract; also called C5A G103V
B2: XPA23 heavy chain K31V (Fab, V domains shown)
VH: B1 VH with K31V, V103G
VL: B1 VL
notes: Fab, periplasmic extract; also called C5A K31V
B3: XPA23 heavy chain I51L (Fab, V domains shown)
VH: B1 VH with I51L, V103G
VL: B1 VL
notes: Fab, periplasmic extract; also called C5A I51L
B4: XPA23 heavy chain P53I (Fab, V domains shown)
VH: B1 VH with P53I, V103G
VL: B1 VL
notes: Fab, periplasmic extract; also called C5A P53I
B5: XPA23 heavy chain M57T (Fab, V domains shown)
VH: B1 VH with M57T, V103G
VL: B1 VL
notes: Fab, periplasmic extract; also called C5A M57T
B6: XPA23 heavy chain S52A (Fab, V domains shown)
VH: B1 VH with S52A, V103G
VL: B1 VL
notes: Fab, periplasmic extract; also called C5A S52A
B7: XPA23 heavy chain S52T (Fab, V domains shown)
VH: B1 VH with S52T, V103G
VL: B1 VL
notes: Fab, periplasmic extract; also called C5A S52T
B8: XPA23 heavy chain S52P (Fab, V domains shown)
VH: B1 VH with S52P, V103G
VL: B1 VL
notes: Fab, periplasmic extract; also called C5A S52P
B9: XPA23 heavy chain S30T (Fab, V domains shown)
VH: B1 VH with S30T, V103G
VL: B1 VL
notes: Fab, periplasmic extract; also called C5A S30T
B10: XPA23 heavy chain R59L (Fab, V domains shown)
VH: B1 VH with R59L, V103G
VL: B1 VL
notes: Fab, periplasmic extract; also called C5A R59L
B11: XPA23 heavy chain I51G (Fab, V domains shown)
VH: B1 VH with I51G, V103G
VL: B1 VL
notes: Fab, periplasmic extract; also called C5A I51G
B12: XPA23 heavy chain S54I (Fab, V domains shown)
VH: B1 VH with S54I, V103G
VL: B1 VL
notes: Fab, periplasmic extract; also called C5A S54I
B13: XPA23 heavy chain R59G (Fab, V domains shown)
VH: B1 VH with R59G, V103G
VL: B1 VL
notes: Fab, periplasmic extract; also called C5A R59G
B14: XPA23 heavy chain M57A (Fab, V domains shown)
VH: B1 VH with M57A, V103G
VL: B1 VL
notes: Fab, periplasmic extract; also called C5A M57A
B15: XPA23 heavy chain S54V (Fab, V domains shown)
VH: B1 VH with S54V, V103G
VL: B1 VL
notes: Fab, periplasmic extract; also called C5A S54V
B16: XPA23 heavy chain P53V (Fab, V domains shown)
VH: B1 VH with P53V, V103G
VL: B1 VL
notes: Fab, periplasmic extract; also called C5A P53V
B17: XPA23 heavy chain K31L (Fab, V domains shown)
VH: B1 VH with K31L, V103G
VL: B1 VL
notes: Fab, periplasmic extract; also called C5A K31L
B18: XPA23 heavy chain S52V (Fab, V domains shown)
VH: B1 VH with S52V, V103G
VL: B1 VL
notes: Fab, periplasmic extract; also called C5A S52V
B19: XPA23 heavy chain K31I (Fab, V domains shown)
VH: B1 VH with K31I, V103G
VL: B1 VL
notes: Fab, periplasmic extract; also called C5A K31I
B20: XPA23 heavy chain R59P (Fab, V domains shown)
VH: B1 VH with R59P, V103G
VL: B1 VL
notes: Fab, periplasmic extract; also called C5A R59P
B21: XPA23 heavy chain S54A (Fab, V domains shown)
VH: B1 VH with S54A, V103G
VL: B1 VL
notes: Fab, periplasmic extract; also called C5A S54A
B22: XPA23 heavy chain S54L (Fab, V domains shown)
VH: B1 VH with S54L, V103G
VL: B1 VL
notes: Fab, periplasmic extract; also called C5A S54L
B23: XPA23 heavy chain S30G (Fab, V domains shown)
VH: B1 VH with S30G, V103G
VL: B1 VL
notes: Fab, periplasmic extract; also called C5A S30G
B24: XPA23 heavy chain P53L (Fab, V domains shown)
VH: B1 VH with P53L, V103G
VL: B1 VL
notes: Fab, periplasmic extract; also called C5A P53L
B25: XPA23 heavy chain S30I (Fab, V domains shown)
VH: B1 VH with S30I, V103G
VL: B1 VL
notes: Fab, periplasmic extract; also called C5A S30I
B26: XPA23 heavy chain S30L (Fab, V domains shown)
VH: B1 VH with S30L, V103G
VL: B1 VL
notes: Fab, periplasmic extract; also called C5A S30L
B27: XPA23 heavy chain P53A (Fab, V domains shown)
VH: B1 VH with P53A, V103G
VL: B1 VL
notes: Fab, periplasmic extract; also called C5A P53A
B28: XPA23 heavy chain P53G (Fab, V domains shown)
VH: B1 VH with P53G, V103G
VL: B1 VL
notes: Fab, periplasmic extract; also called C5A P53G
B29: XPA23 heavy chain I51V (Fab, V domains shown)
VH: B1 VH with I51V, V103G
VL: B1 VL
notes: Fab, periplasmic extract; also called C5A I51V
B30: XPA23 heavy chain I51T (Fab, V domains shown)
VH: B1 VH with I51T, V103G
VL: B1 VL
notes: Fab, periplasmic extract; also called C5A I51T
B31: XPA23 heavy chain S54T (Fab, V domains shown)
VH: B1 VH with S54T, V103G
VL: B1 VL
notes: Fab, periplasmic extract; also called C5A S54T
B32: XPA23 heavy chain M57I (Fab, V domains shown)
VH: B1 VH with M57I, V103G
VL: B1 VL
notes: Fab, periplasmic extract; also called C5A M57I
B33: XPA23 heavy chain I51A (Fab, V domains shown)
VH: B1 VH with I51A, V103G
VL: B1 VL
notes: Fab, periplasmic extract; also called C5A I51A
B34: XPA23 heavy chain S52G (Fab, V domains shown)
VH: B1 VH with S52G, V103G
VL: B1 VL
notes: Fab, periplasmic extract; also called C5A S52G
B35: XPA23 heavy chain M57L (Fab, V domains shown)
VH: B1 VH with M57L, V103G
VL: B1 VL
notes: Fab, periplasmic extract; also called C5A M57L
B36: XPA23 heavy chain M57V (Fab, V domains shown)
VH: B1 VH with M57V, V103G
VL: B1 VL
notes: Fab, periplasmic extract; also called C5A M57V
B37: XPA23 heavy chain N104G (Fab, V domains shown)
VH: B1 VH with V103G, N104G
VL: B1 VL
notes: Fab, periplasmic extract; also called C5A N104G
B38: XPA23 heavy chain S30A (Fab, V domains shown)
VH: B1 VH with S30A, V103G
VL: B1 VL
notes: Fab, periplasmic extract; also called C5A S30A
B39: XPA23 heavy chain N104T (Fab, V domains shown)
VH: B1 VH with V103G, N104T
VL: B1 VL
notes: Fab, periplasmic extract; also called C5A N104T
B40: XPA23 heavy chain N104V (Fab, V domains shown)
VH: B1 VH with V103G, N104V
VL: B1 VL
notes: Fab, periplasmic extract; also called C5A N104V
B41: XPA23 heavy chain R59T (Fab, V domains shown)
VH: B1 VH with R59T, V103G
VL: B1 VL
notes: Fab, periplasmic extract; also called C5A R59T
B42: XPA23 heavy chain S54G (Fab, V domains shown)
VH: B1 VH with S54G, V103G
VL: B1 VL
notes: Fab, periplasmic extract; also called C5A S54G
B43: XPA23 heavy chain N104A (Fab, V domains shown)
VH: B1 VH with V103G, N104A
VL: B1 VL
notes: Fab, periplasmic extract; also called C5A N104A
B44: XPA23 heavy chain S54P (Fab, V domains shown)
VH: B1 VH with S54P, V103G
VL: B1 VL
notes: Fab, periplasmic extract; also called C5A S54P
B45: XPA23 heavy chain N104L (Fab, V domains shown)
VH: B1 VH with V103G, N104L
VL: B1 VL
notes: Fab, periplasmic extract; also called C5A N104L

Biological target: T1, IL-1β (UniProt P01584 117-269)
T1 construct: Antigen of XPA23
Assay: Biacore, Fab periplasmic extract

| fold difference in affinity against the original | Binder |
| --- | --- |
| 2.56 fold | B1 |
| 0.81 fold | B2 |
| 0.79 fold | B3 |
| 0.08 fold | B4 |
| 0.06 fold | B5 |
| 0.05 fold | B6 |
| 0.04 fold | B7 |
| 0.05 fold | B8 |
| 0.06 fold | B9 |
| 0.08 fold | B10 |
| 0.94 fold | B11 |
| 0.86 fold | B12 |
| 1.04 fold | B13 |
| 0.03 fold | B14 |
| 1 fold | B15 |
| 1.1 fold | B16 |
| 1.08 fold | B17 |
| 0.04 fold | B18 |
| 0.74 fold | B19 |
| 0.07 fold | B20 |
| 1 fold | B21 |
| 0.91 fold | B22 |
| 0.13 fold | B23 |

| fold difference in affinity against the original | Binder |
| --- | --- |
| 0.04 fold | B24 |
| 0.08 fold | B25 |
| 0.91 fold | B26 |
| 0.05 fold | B27 |
| 0.02 fold | B28 |
| 0.99 fold | B29 |
| 0.86 fold | B30 |
| 0.14 fold | B31 |
| 0.03 fold | B32 |
| 1.04 fold | B33 |
| 0.03 fold | B34 |
| 0.06 fold | B35 |
| 0.03 fold | B36 |
| 1.21 fold | B37 |
| 0.77 fold | B38 |
| 0.95 fold | B39 |
| 1.27 fold | B40 |
| 0.76 fold | B41 |
| 1.43 fold | B42 |
| 1.61 fold | B43 |
| 0.06 fold | B44 |
| 1.19 fold | B45 |
